From publication doi:10.1101/130245 (bioRxiv, 2017)
Where “and” joins values, the source holds several entries; their conditions need not be identical. Identical values can stand only once.

Key:
SEC = biological target: the molecule itself; assay: SEC
crystal structure = biological target: the molecule itself; assay: crystal structure

Protein | stoichiometry N (SEC) | binding result (crystal structure)
14-3-3/HSPB6 protein-phosphopeptide chimera CH1 (14-3-3σΔC Clu3 fused through a GSGS linker to the HSPB6 phosphopeptide) (other, phosphoserine at the Ser that is Ser16 of HSPB6 (RRApSAPL)) GPHMERASLIQKAKLAEQAERYEDMAAFMKGAVEKGEELSCEERNLLSVAYKNVVGGQRAAWRVLSSIEQKSNEEGSAAAGPEVREYREKVETELQGVCDTVLGLLDSHLIKEAGDAESRVFYLKMKGDYYRYLAEVATGDDKKRIIDSARSAYQEAMDISKKEMPPTNPIRLGLALNFSVFHYEIANSPEEAISLAKTTFDEAMADLHTLSEDSYKDSTLIMQLLRDNLTLWTGSGSLRRASAPL | 2 and 4 | –
chimera CH2 of 14-3-3σΔC Clu3 with the Gli phosphopeptide (other, phosphoserine at the Ser that is Ser640 of Gli (RRApSDPAQA)) GPHMERASLIQKAKLAEQAERYEDMAAFMKGAVEKGEELSCEERNLLSVAYKNVVGGQRAAWRVLSSIEQKSNEEGSAAAGPEVREYREKVETELQGVCDTVLGLLDSHLIKEAGDAESRVFYLKMKGDYYRYLAEVATGDDKKRIIDSARSAYQEAMDISKKEMPPTNPIRLGLALNFSVFHYEIANSPEEAISLAKTTFDEAMADLHTLSEDSYKDSTLIMQLLRDNLTLWTGSGSLRRASDPAQA | – | binds
untagged C-terminally truncated human 14-3-3σ (14-3-3σΔC: residues 1-231) (domain or fragment) MERASLIQKAKLAEQAERYEDMAAFMKGAVEKGEELSCEERNLLSVAYKNVVGGQRAAWRVLSSIEQKSNEEGSEEKGPEVREYREKVETELQGVCDTVLGLLDSHLIKEAGDAESRVFYLKMKGDYYRYLAEVATGDDKKRIIDSARSAYQEAMDISKKEMPPTNPIRLGLALNFSVFHYEIANSPEEAISLAKTTFDEAMADLHTLSEDSYKDSTLIMQLLRDNLTLWT | 2 | –
